# Measurements taken from paper PMC6008332, “Nuclear PTEN safeguards pre-mRNA splicing to link Golgi apparatus for its tumor suppressive role” (Nature Communications, 2018).
# T1: GST-tagged SF3B4 on the human proteome microarray (human, UniProt Q15427 1-424)
# T1 construct: SF3B4 spotted on the human proteome microarray; also called SF3B4 (HPM); source: bought: human proteome microarray (ProtoArray Human Protein Microarray, Wayen Biotechnologies); not shown: GST, N-terminal, kept
# T1 sequence (looked up): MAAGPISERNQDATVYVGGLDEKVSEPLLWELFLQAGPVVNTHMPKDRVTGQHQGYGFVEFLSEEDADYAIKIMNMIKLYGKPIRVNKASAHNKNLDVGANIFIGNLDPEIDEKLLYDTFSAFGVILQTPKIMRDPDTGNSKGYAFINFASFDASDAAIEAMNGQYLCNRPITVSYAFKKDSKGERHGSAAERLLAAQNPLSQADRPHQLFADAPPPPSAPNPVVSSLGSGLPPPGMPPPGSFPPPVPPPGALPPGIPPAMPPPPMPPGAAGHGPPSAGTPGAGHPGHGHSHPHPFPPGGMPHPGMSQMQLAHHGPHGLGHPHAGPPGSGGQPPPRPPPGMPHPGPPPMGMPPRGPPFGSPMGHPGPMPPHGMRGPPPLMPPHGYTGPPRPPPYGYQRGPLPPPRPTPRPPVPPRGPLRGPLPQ
# Tests used:
# Settings in all cases: both partners purified
# [1] = biological target: T1, GST-tagged SF3B4 on the human proteome …; test: peptide or protein array; human proteome microarray of 20,240 N-terminally GST-tagged proteins probed with 5 μg/5 ml Biotin-labeled His-PTEN, 1 h room temperature; Cy5-conjugated streptavidin; cutoff SNR ≥3 and fold change ≥5
# [2] = biological target: T2, GST-tagged HNRNPU on the human proteome microarray (human, UniProt Q00839 1-825); test: as above
# T2 construct: HNRNPU spotted on the human proteome microarray; also called HNRNPU (HPM); source: bought: human proteome microarray (ProtoArray Human Protein Microarray, Wayen Biotechnologies); not shown: GST, N-terminal, kept
# [3] = biological target: T3, GST-tagged U2AF2 on the human proteome microarray (human, UniProt P26368 1-475); test: as above
# T3 construct: U2AF2 spotted on the human proteome microarray; also called U2AF2 (HPM); source: bought: human proteome microarray (ProtoArray Human Protein Microarray, Wayen Biotechnologies); not shown: GST, N-terminal, kept
# [4] = biological target: T4, GST-tagged APC3 (CDC27) on the human proteome microarray (human, UniProt P30260 1-824); test: as above
# T4 construct: APC3 (CDC27) spotted on the human proteome microarray; source: bought: human proteome microarray (ProtoArray Human Protein Microarray, Wayen Biotechnologies); not shown: GST, N-terminal, kept
# [5] = biological target: T5, GST-tagged HNRNPK on the human proteome microarray (human, UniProt P61978 1-463); test: as above
# T5 construct: HNRNPK spotted on the human proteome microarray; also called HNRNPK (HPM); source: bought: human proteome microarray (ProtoArray Human Protein Microarray, Wayen Biotechnologies); not shown: GST, N-terminal, kept
# [6] = biological target: T6, GST-tagged USP7 (HAUSP7) on the human proteome microarray (human, UniProt Q93009 1-1102); test: as above
# T6 construct: USP7 spotted on the human proteome microarray; source: bought: human proteome microarray (ProtoArray Human Protein Microarray, Wayen Biotechnologies); not shown: GST, N-terminal, kept
# His-tagged U2AF2 = biological target: T7, His-tagged U2AF2 (UniProt P26368 1-475); test: pull-down; 15 μg His-tagged U2AF2 mixed with 4 μg GST or GST-PTEN bound to glutathione-sepharose beads in 0.5 ml binding buffer, overnight at 4 °C; immunoblot for His and GST
# T7 construct: Recombinant full-length U2AF2; also called His-U2AF2; source: E. coli (pET-28a), purified (nickel chelating, ion exchange, gel filtration)
binding result [1],binding result [2],binding result [3],binding result [4],binding result [5],binding result [6],binding result (His-tagged U2AF2),Binder
binds,binds,binds,binds,binds,binds,–,"Biotin-labeled His-PTEN (natural protein, biotin (sites not given), Recombinant full-length PTEN; also called biotinylated PTEN protein; PTEN−biotin conjugates; source: E. coli (pET-28a), purified (nickel chelating, ion exchange, gel filtration), labeled with biotin) not shown"
–,–,–,–,–,–,binds,"GST-tagged PTEN (natural protein, PTEN CDS inserted into the pEGX-4T-3 vector (so in the source); also called GST-PTEN) not shown"
